Data: publication PMC6200739

Assays:
[1] = target: Flag-tagged LDHA containing a nuclear localization signal peptide; assay: SEC
[2] = target: Flag-tagged LDHA containing a nuclear localization signal peptide; assay: cross-linking

With “Flag-tagged LDHA containing a nuclear localization signal peptide (enzyme)” as the substance, how does the stoichiometry N [1] read?
The stoichiometry N was 2.

What about the stoichiometry N [2] of the same substance?
Its stoichiometry N is 2.
